Experimental data taken from patent publication US12226490B2, “Anti-ROR1 antibody conjugates, compositions comprising anti ROR1 antibody conjugates, and methods of making and using anti-ROR1 antibody conjugates preliminary class” (Sutro Biopharma, Inc., priority 2022, dated 2025).
Positions count from the first letter of the chain named.

B1: SRP2196-A03 (antibody, V domains shown)
VH: EVQLVESGGGLVQPGGSLRLSCAASGFNITQYHIHWVRQAPGKGLEWVGYISPNSGSTHEADSVKGRFTISADTSKNTAYLQMNSLRAEDTAVYYCARDSRRYVRGWDYWGQGTLVTVSS
VL: QAVVTQESALTTSPGETVTLTCRSSTGAVTTSNYANWVQEKPDHLFTGLIGGTNKRAPGVPARFSGSLIGDKAALTITGAQTEDEAIYFCALWYSNLWVFGGGTKLTVL
B2: SRP2196-A02 (antibody, V domains shown)
VH: B1 VH with Q31G, H33Y, Y50Q, S57A, E60D
VL: B1 VL
B3: SRP2196-B06 (antibody, V domains shown)
VH: B1 VH with Q31G, H33Y, Y50Q, H59Y, E60S, R105L, G106S
VL: B1 VL
B4: SRP2196-A09 (antibody, V domains shown)
VH: B1 VH with Q31G, H33Y, Y50Q, S57A, E60Y, V104I, G106S
VL: B1 VL
B5: SRP2196-A01 (antibody, V domains shown)
VH: B1 VH with Q31G, H33Y, Y50Q, S57Y, H59Y, E60Y
VL: B1 VL
B6: SRP2196-B03 (antibody, V domains shown)
VH: B1 VH with V12A, Q31G, H33Y, S57A, E60Y, G106P, W107F
VL: B1 VL
B7: SRP2196-A08 (antibody, V domains shown)
VH: B1 VH with Q31G, H33Y, H59Y, E60K, K76R, G106S
VL: B1 VL
B8: SRP2196-B02 (antibody, V domains shown)
VH: B1 VH with H33Y, S57Q, H59Y, E60D, G106S
VL: B1 VL
B9: SRP2196-A06 (antibody, V domains shown)
VH: B1 VH with Q31G, H33Y, Y50Q, E60Q, E89G
VL: B1 VL
B10: SRP2196-B01 (antibody, V domains shown)
VH: B1 VH with Q31G, H33Y, Y50Q, S57Y, H59Y, E60Y, A79T, G106S
VL: B1 VL
B11: SRP2196-A10 (antibody, V domains shown)
VH: B1 VH with Q31G, H33Y, S57A, E60Y, T74I, Y94H, G106S
VL: B1 VL
B12: SRP2196-A11 (antibody, V domains shown)
VH: B1 VH with Q31G, H33Y, Y50Q, S57T, H59Y, E60D
VL: B1 VL
B13: SRP2196-B04 (antibody, V domains shown)
VH: B1 VH with Q31E, H33Y, S57A, H59Y, E60Q
VL: B1 VL
B14: SRP2196-A05 (antibody, V domains shown)
VH: B1 VH with Q31N, H33Y, S57A, H59Y, E60Q, G106S
VL: B1 VL
B15: SRP2196-B05 (antibody, V domains shown)
VH: B1 VH with Q31G, H33Y, Y50Q, S57A, H59Y, E60H
VL: B1 VL
B16: SRP2196-A07 (antibody, V domains shown)
VH: B1 VH with Q31G, H33Y, Y50Q, H59Y, E60Y, N84S
VL: B1 VL
B17: 1944-A07 HC w/hUCHT1 LC3: HC of lead antibody 1944-A07 co-expressed with LC "derived from anti-CD3 antibodies": hUCHT1-LC3 (antibody, V domains shown)
VH: B1 VH with Q31G, H33Y, H59Y, E60Y, G106P, W107F
VL: DIQMTQSPSTLSASVGDRVTITCRASQDIRNYLNWYQQKPGKAPKLLIYYTSRLHSGVPSRFSGSGSGTEYTLTISSLQPDDFATYYCQQGNTLPWTFGGGTKVEIK
B18: 1944-A07 HC w/hSP34 LC3: HC of lead antibody 1944-A07 co-expressed with LC "derived from anti-CD3 antibodies": hSP34-LC3 (antibody, V domains shown)
VH: B1 VH with Q31G, H33Y, H59Y, E60Y, G106P, W107F
VL: QTVVTQEPSLTVSPGGTVTLTCGSSTGAVTSGYYPNWFQQKPGQAPRGLIGGTKFLAPGTPARFSGSLLGGKAALTLSGVQPEDEAEYYCALWYSNRWVFGGGTQLTVTG
B19: SRP2196-A04 (antibody, V domains shown)
VH: EVQLVESGGGLVQPGGSLRLSCAASGFNISPYYIHWVRQAPGKGLEWVGQIYPISGHTYQADSVKGRFTISADTSKNTAYLQMNSLRAEDTAVYYCARESRRYVGPFGYWGQGTLVTVSS
VL: B1 VL
B20: SRP1944-A07 w SP34 LC3 (antibody, V domains shown)
VH: B1 VH with Q31G, H33Y, H59Y, E60Y, G106P, W107F
VL: B18 VL

system: not listed separately; assay: Differential scanning fluorimetry (protein thermal shift; TM1 Fc, TM2 Fab); type: physicochemical; conditions: melting temperature of the Fab domain; Table 11
Protocol: A protein thermal shift assay was carried out by mixing the protein to be assayed with an environmentally sensitive dye (SYPRO Orange, Life Technologies Cat #S-6650) in a phosphate buffered solution (PBS), and monitoring the fluorescence of the mixture in real time as it underwent controlled thermal denaturation. Protein solutions between 0.2-2 mg/mL were mixed at a 1-1 volumetric ratio with a 1-500 PBS-diluted solution of SYPRO Orange (SYPRO Orange stock dye is 5000× in DMSO). 10 μL aliquots of the protein-dye mixture were dispensed in quadruplicate in a 384-well microplate (Bio-Rad Cat #MSP-3852), and the plate was sealed with an optically clear sealing film (Bio-Rad Cat #MSB-1001) and placed in a 384-well plate real-time thermocycler (Bio-Rad CFX384 Real Time System). The protein-dye mixture was heated from 25° C. to 95° C., at increments of 0.1° C. per cycle (˜1.5° C. per minute), allowing 3 seconds of equilibration at each temperature before taking a fluorescence measurement. At the end of the experiment, the transition melting temperatures (TM1 and TM2) were determined using the Bio-Rad CFX manager software. TM1 represents the melting temperature of the Fc domain. TM2 represents the melting temperature of the Fab domain.
For the thermal stability of an antibody, the first melting peak (Tm1) coincides with the unfolding of the CH2 domain (FC stability), while the second melting peak (Tm2) occurs upon unfolding of the Fab domain.

| Molecule | TM2 |
| --- | --- |
| B1 | 70 °C |
| B2 | 71 °C |
| B3 | 70 °C |
| B4 | 75 °C |
| B5 | 74 °C |
| B6 | 71 °C |
| B7 | 69 °C |
| B8 | 69 °C |
| B9 | 70 °C |
| B10 | 75 °C |
| B11 | 68 °C |
| B12 | 73 °C |
| B13 | 72 °C |
| B14 | 71 °C |
| B15 | 73 °C |
| B16 | 74 °C |

target: T1, human ROR1-Fz (Homo sapiens, UniProt Q01973); assay: Biacore off-rate and kinetic analysis, ROR1 frizzled domain; type: binding; conditions: Sample ROR1 Fz; SPR
T1 construct: Frizzled (Fz, residues 165-305); HIS6 (C); purchased Acro Biosystems; host or cells: HEK293
Protocol: Anti-Fc polyclonal antibodies were immobilized onto a CM5 chip (GE Life Sciences) using amine coupling chemistry (from Amine Coupling Kit, GE Life Sciences). The immobilization steps were carried out at a flow rate of 25 μL/min in 1×HBS-EP+ buffer (GE Life Sciences; 10× Stock diluted before use). The sensor surfaces were activated for 7 min with a mixture of NHS (0.05 M) and EDC (0.2 M). The Anti-Fc antibodies were injected over all 4 flow cells at a concentration of 25 ug/ml in 10 mM sodium acetate, pH 4.5, for 7 min. Ethanolamine (1 M, pH 8.5) was injected for 7 min to block any remaining activated groups. An average of 12,000 response units (RU) of capture antibody was immobilized on each flow cell.
Off-rate and kinetic binding experiments were performed at 25° C. using 1×HBS-EP+ buffer. Test and control antibodies were injected over the anti-Fc surface at concentrations of 5-10 μg/mL for 12 seconds at a flow rate of 10 μL/min on flow cells 2, 3 and 4, followed by a buffer wash for 30 seconds at the same flow rate. Kinetic characterization of antibody samples was carried out with a range of antigen concentrations from 1-100 nM and 1 injection of 0 nM antigen (for example, 100, 50, 25, 6.25, 1.56 and 0 nM). After capturing ligand (antibody) on the anti-Fc surface, the analyte (hROR1, Fz or Kr domains, Acro Biosystems, Delaware) was bound for 180 seconds, followed by a 600 second dissociation phase at a flow rate of 50 μL/min. Between each ligand capture and analyte binding cycle, regeneration was carried out using 2 injections of 10 mM Glycine pH 2.0 for 30 seconds at 30 μL/min, followed by a 30 second buffer wash step.
The data was fit with the Biacore T200 Evaluation software, using a 1-1 Langmuir binding model. KD (affinity, nM) was determined as a ratio of the kinetic rate constants calculated from the fits of the association and dissociation phases.
For anti-CD3-LC-containing IgGs that had detectable ROR1-binding in ELISA (1944-A07 and 1987-C05 variants), those antibodies were further tested for binding by surface plasmon resonance (SPR). Binding kinetics were assessed to the ROR1-frizzled domain (hROR1-Fz) or the ROR1-extracellular domain (hROR1) for 1944-A07 and 1987-C05 variants, respectively. Briefly, anti-ROR1 antibodies were captured via anti-human Fc polyclonal antibodies immobilized to a CM5 chip, and ROR1 recombinant proteins were flowed across the surface to assess binding kinetics. hROR1 or hROR1-Fz domain (Acro Biosystems, Delaware) binding was tested at 100, 50, 25, 6.25, 1.5625 nM. The data was fit with the Biacore™ T200 Evaluation software, using a 1-1 Langmuir binding model. KD (affinity, nM) was determined as a ratio of the kinetic rate constants calculated from the fits of the association and dissociation phases.

T1 sequence (Q01973 165-305): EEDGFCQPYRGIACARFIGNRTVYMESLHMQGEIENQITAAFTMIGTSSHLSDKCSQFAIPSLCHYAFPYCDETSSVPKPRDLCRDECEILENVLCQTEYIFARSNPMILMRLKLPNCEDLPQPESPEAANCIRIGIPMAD

| Molecule | kd1 |
| --- | --- |
| B17 | 0.119 s⁻¹ |
| B18 | 0.00228 s⁻¹ |

same assay, conditions: Sample ROR1 Fz; SPR, 1-1 Langmuir

| Molecule | ka1 |
| --- | --- |
| B17 | 1.85e+06 M⁻¹ s⁻¹ |
| B18 | 360000 M⁻¹ s⁻¹ |

same assay, conditions: Table 11 (SP34 light chain)

| Molecule | Biacore human ROR1-Fz ka | Biacore human ROR1-Fz kd |
| --- | --- | --- |
| B1 | 169000 M⁻¹ s⁻¹ | 0.000275 s⁻¹ |
| B19 | 139000 M⁻¹ s⁻¹ | 0.000343 s⁻¹ |
| B3 | 142000 M⁻¹ s⁻¹ | 0.000423 s⁻¹ |
| B4 | 150000 M⁻¹ s⁻¹ | 0.000568 s⁻¹ |
| B6 | 124000 M⁻¹ s⁻¹ | 0.000945 s⁻¹ |
| B7 | 183000 M⁻¹ s⁻¹ | 0.00078 s⁻¹ |
| B8 | 163000 M⁻¹ s⁻¹ | 0.000227 s⁻¹ |
| B9 | 180000 M⁻¹ s⁻¹ | 0.00069 s⁻¹ |
| B10 | 131000 M⁻¹ s⁻¹ | 0.000401 s⁻¹ |
| B11 | 172000 M⁻¹ s⁻¹ | 0.000479 s⁻¹ |
| B12 | 191000 M⁻¹ s⁻¹ | 0.000792 s⁻¹ |
| B13 | 127000 M⁻¹ s⁻¹ | 0.000352 s⁻¹ |
| B20 | 597000 M⁻¹ s⁻¹ | 0.0085 s⁻¹ |
| B14 | 175000 M⁻¹ s⁻¹ | 0.000682 s⁻¹ |
| B16 | 186000 M⁻¹ s⁻¹ | 0.00064 s⁻¹ |
